Measurements published in the supplement of paper PMC10724198.
± gives the standard deviation of the averaged measurements.

Tested on: Saccharomyces cerevisiae
Test: protein stability index of tFT-peptide fusion (C-terminal peptide) (PSI (0-1 scale)); higher = more stable (slower turnover)
Settings: genetic background: wild type; temperature: 30 C
Method: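 Multiplexed protein stability (MPS) profiling in S. cerevisiae. Random 12-aa peptides (tFT-X12 library) are fused to the C-terminus of a sfGFP-mCherry tandem fluorescent timer, after mCherry and a GGGS linker. Cells are FACS-sorted into 8 mCherry/sfGFP bins and deep-sequenced. The protein stability index (PSI) is the read-weighted bin average, scaled from 0 (unstable) to 1 (stable). Only peptides with >10 reads are reported; cells were grown at 30 °C in SC-His with glucose.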
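Also: PSI is a weighted mean of sequencing reads over stability bins, variants kept only with over 10 reads, mCherry proximal and sfGFP distal, peptide attached via GGGS linker.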

THPPLPPYLSPP
protein stability index: 0.727 ± 0.015

PSPGPPHPPPLF
protein stability index: 0.713 ± 0.063

WARGVAASGRFV
protein stability index: 0.6916 ± 0.0025

SSPPPHPPPVPR
protein stability index: 0.688 ± 0.1

SLSLHALPRPTT
protein stability index: 0.655 ± 0.029

VVKFLALIPLSP
protein stability index: 0.583 ± 0.01

SLSLYSSTSLLP
protein stability index: 0.694 ± 0.064

FLRCALRLRFGF
protein stability index: 0.671 ± 0.038

TLAPPSRATPPP
protein stability index: 0.648 ± 0.041

RSTSGACSRRWL
protein stability index: 0.624 ± 0.025

ATPYGLTPNYSG
protein stability index: 0.676 ± 0.15

CISIRKEERRKI
protein stability index: 0.7012 ± 0.0019

LKQKMKETGRRR
protein stability index: 0.666 ± 0.058

YSVDGTGVGLWV
protein stability index: 0.717 ± 0.016

YQGSFGLCRLML
protein stability index: 0.808 ± 0.034

GTLFKEGSRVTL
protein stability index: 0.665 ± 0.027

GLVSALSGLLTP
protein stability index: 0.651 ± 0.089

GGGLGGREPGGS
protein stability index: 0.742 ± 0.15

ATPVPTPRPAAP
protein stability index: 0.729 ± 0.048

YRARTADRPRDQ
protein stability index: 0.729 ± 0.039

LYVIGGTDLVGG
protein stability index: 0.72 ± 0.04

GNQAILGRYLSV
protein stability index: 0.623 ± 0.051

PPPPPVLPPRPP
protein stability index: 0.713 ± 0.075

VRSTPLKEMMRH
protein stability index: 0.681 ± 0.0092

VCIGVGGVVLGL
protein stability index: 0.642 ± 0.039

WGGTRCGGREVV
protein stability index: 0.692 ± 0.054

KYRHDFNEVSKT
protein stability index: 0.665 ± 0.036

GGCGGVGGACVV
protein stability index: 0.738 ± 0.086

SGLRHACTPKSD
protein stability index: 0.671 ± 0.024

NVIGGGRSAGLV
protein stability index: 0.609 ± 0.053

KKEKNQEKRKKE
protein stability index: 0.657 ± 0.021

GGLVVGCGGMWV
protein stability index: 0.609 ± 0.0075

YFGGMGARGRER
protein stability index: 0.687 ± 0.0081

YFWFSRGLSVFF
protein stability index: 0.666 ± 0.0073

WGVGWVLEVLLG
protein stability index: 0.529 ± 0.0066

EAIGGVPASSRP
protein stability index: 0.661 ± 0.0091

RPGGSRTEGRRT
protein stability index: 0.683 ± 0.033

DTHESELNQLNG
protein stability index: 0.6902 ± 0.0032

QPGRGIAFVCFD
protein stability index: 0.735 ± 0.051

DFVGCSGRGSFV
protein stability index: 0.72 ± 0.023

WGVGCVRGVWGA
protein stability index: 0.714 ± 0.088

RIAWTKEKMGKT
protein stability index: 0.661 ± 0.024

ETRKKKLTNSRT
protein stability index: 0.622 ± 0.071

CVWHELTYGSLY
protein stability index: 0.66 ± 0.062

KAGVWLWVGGGG
protein stability index: 0.739 ± 0.015

VSVLCADGVLRM
protein stability index: 0.725 ± 0.028

KIKQKEITEKNR
protein stability index: 0.638 ± 0.038

SPPPHSARPPRP
protein stability index: 0.686 ± 0.012

WRCSAITASEYL
protein stability index: 0.686 ± 0.032

LPPPPIAPPLTP
protein stability index: 0.689 ± 0.063

HLCLACYRSVDM
protein stability index: 0.688 ± 0.011

SLVNDLFFLFFY
protein stability index: 0.523 ± 0.069

MSWLGLGLWSVF
protein stability index: 0.808 ± 0.069

VCLVCLFNACRF
protein stability index: 0.608 ± 0.032

EDYERETRKICK
protein stability index: 0.717 ± 0.038

WYMKFYNKKMKE
protein stability index: 0.702 ± 0.04

PHLAPPPGPLHP
protein stability index: 0.7233 ± 0.0024

CPLLSPTPPLRP
protein stability index: 0.703 ± 0.019

STRFVRNEFGVS
protein stability index: 0.665 ± 0.035

SDVRANAYRPEH
protein stability index: 0.688 ± 0.042

YWGGWCGGWEIG
protein stability index: 0.73 ± 0.034

GDWSYIVGIKYY
protein stability index: 0.626 ± 0.0078

RLLGLWGEVMGF
protein stability index: 0.731 ± 0.021

SKPYNSAIKDIT
protein stability index: 0.725 ± 0.096

ERRGGRKGRGRE
protein stability index: 0.662 ± 0.02

EATGSLISFCGW
protein stability index: 0.665 ± 0.068

VKKHRQTNGMVY
protein stability index: 0.739 ± 0.018

ICSVGGFWLSCV
protein stability index: 0.596 ± 0.032

CGQKREFKEGGG
protein stability index: 0.634 ± 0.0059

DYLDYPSYNDLT
protein stability index: 0.599 ± 0.038

KNNKSERIEKEQ
protein stability index: 0.701 ± 0.08

RGWVGGGSSAWS
protein stability index: 0.651 ± 0.024

KKRNMRINSKKQ
protein stability index: 0.7 ± 0.022

KKRRNRIKKSAK
protein stability index: 0.689 ± 0.14

YCSIVRSLGSPL
protein stability index: 0.698 ± 0.065

VATVSLSVRNTS
protein stability index: 0.66 ± 0.033

WRLGGGMVCVAS
protein stability index: 0.566 ± 0.042

GGCTVLRASIFA
protein stability index: 0.597 ± 0.0063

FVRGGWAVMLGG
protein stability index: 0.58 ± 0.049

AHYPGRAHLLCL
protein stability index: 0.607 ± 0.02

RRWCATLGRDRV
protein stability index: 0.7029 ± 0.0051

SARQCWFSLSDD
protein stability index: 0.639 ± 0.043

ALLPSAWPFRPP
protein stability index: 0.611 ± 0.044

PPPPLPAPLSPA
protein stability index: 0.651 ± 0.021

RAPSLLRPRSPP
protein stability index: 0.658 ± 0.12

PPPRPPPPLSHS
protein stability index: 0.632 ± 0.04

KKKIKNKTNEEK
protein stability index: 0.647 ± 0.038

PPSPAPPPASPP
protein stability index: 0.651 ± 0.035

RQSSPKQDRKPS
protein stability index: 0.679 ± 0.048

KYKELEAAALQK
protein stability index: 0.732 ± 0.11

LGSGVQGEGRGW
protein stability index: 0.678 ± 0.042

LIVSTAGVTQFS
protein stability index: 0.66 ± 0.012

QGGGDREVRVSE
protein stability index: 0.653 ± 0.058

KTRNDQPQKFHN
protein stability index: 0.688 ± 0.034

GKKKVKEWKKQM
protein stability index: 0.604 ± 0.025

PSSPPPPSATPP
protein stability index: 0.701 ± 0.091

LRGSCFSLWLVF
protein stability index: 0.526 ± 0.031

VSLGHGYVFRRV
protein stability index: 0.6921 ± 0.0058
